Changes are numbered by the printed parent chain. Names and notes keep the numbering of the source.
T1: Bre1, 6× histidine tag, purified (budding yeast, UniProt Q07457 1-700)
T1 construct: Bre1, budding yeast; the BRE1 gene inserted into pET26b; source: E. coli BL21 Rosetta (DE3), purified (Ni-NTA, heparin, gel filtration)
T1 sequence (looked up): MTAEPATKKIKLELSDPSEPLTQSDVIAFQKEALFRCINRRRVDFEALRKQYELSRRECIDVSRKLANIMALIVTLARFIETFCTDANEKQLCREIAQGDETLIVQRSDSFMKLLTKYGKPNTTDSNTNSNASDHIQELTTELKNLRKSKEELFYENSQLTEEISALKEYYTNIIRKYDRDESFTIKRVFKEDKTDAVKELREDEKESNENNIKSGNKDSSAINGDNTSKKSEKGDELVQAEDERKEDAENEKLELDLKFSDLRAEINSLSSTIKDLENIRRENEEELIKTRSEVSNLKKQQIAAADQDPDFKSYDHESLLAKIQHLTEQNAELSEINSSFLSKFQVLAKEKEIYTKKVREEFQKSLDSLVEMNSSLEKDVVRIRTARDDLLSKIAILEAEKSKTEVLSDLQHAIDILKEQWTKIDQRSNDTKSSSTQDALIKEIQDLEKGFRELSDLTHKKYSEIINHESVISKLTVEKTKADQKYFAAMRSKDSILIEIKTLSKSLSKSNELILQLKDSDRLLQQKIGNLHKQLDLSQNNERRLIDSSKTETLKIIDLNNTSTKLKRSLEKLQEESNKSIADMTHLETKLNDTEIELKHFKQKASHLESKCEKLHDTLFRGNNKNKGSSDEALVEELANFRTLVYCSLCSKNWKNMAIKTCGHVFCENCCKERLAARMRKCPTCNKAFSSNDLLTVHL

T2: Bre1-LR (Bre1 residues 227–700, LBD and RING domains), 6× histidine tag (budding yeast, UniProt Q07457 227-700)
T2 construct: two Bre1 polypeptides form the dimeric coiled-coils of the LBD in the crystal structure; also called WT; source: E. coli BL21 Rosetta (DE3), purified (Ni-NTA, heparin, gel filtration)
T2 sequence (looked up): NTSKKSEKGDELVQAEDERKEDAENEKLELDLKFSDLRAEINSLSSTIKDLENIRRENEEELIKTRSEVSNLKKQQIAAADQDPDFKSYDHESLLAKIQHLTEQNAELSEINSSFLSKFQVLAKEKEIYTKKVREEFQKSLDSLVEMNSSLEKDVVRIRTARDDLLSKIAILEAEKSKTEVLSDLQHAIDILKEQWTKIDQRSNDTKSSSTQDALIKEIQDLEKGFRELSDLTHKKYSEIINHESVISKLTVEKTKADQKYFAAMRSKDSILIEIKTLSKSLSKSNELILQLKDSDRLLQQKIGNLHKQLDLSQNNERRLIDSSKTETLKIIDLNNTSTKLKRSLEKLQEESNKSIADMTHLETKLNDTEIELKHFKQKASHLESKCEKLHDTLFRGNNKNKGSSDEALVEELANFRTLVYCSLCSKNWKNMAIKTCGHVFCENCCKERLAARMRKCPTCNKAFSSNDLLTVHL

B1: Lge1, 6× histidine tag, purified (natural protein, budding yeast, UniProt Q02796 1-332, looked up)
chain: MSGYTGNNYSRYSSTPPRQRGGYHHARRSRGGAGGSYYRGGNASYGARYNSDYEQPPQEGDLRQTGAYYRNGYTDTRPYYSANSRHYQAQPSPRYNNGTNSYHLPQRGNSQDTNGRTTSASQEDNDEKRVKSRYRNMQADHPRQQPMSVGSTSSRNGSSGNSSTSSTSNGLPPPPSVSSITNNRSYHSSAYPYSSSHTYNNYHHRETPPPPPSNGYYAKGYPVHVPENRSNSDGSSSSVVKKKRILDMKDSPFIYLTDFDKNVKKTNNTESECEKAREVFKESDSIDSALEELNLKINSNELELRLLNNQCDKHALNIQLTQEKLDSLLLMQ
notes: Lge1, budding yeast; source: E. coli BL21 Rosetta (DE3), purified (Ni-NTA in 8 M urea, urea removed by washing)
B2: Lge1-CT E301K/R305E (domain or fragment, budding yeast, UniProt Q02796 261-332, looked up)
chain: KNVKKTNNTESECEKAREVFKESDSIDSALEELNLKINSNKLELELLNNQCDKHALNIQLTQEKLDSLLLMQ
notes: Lge1, budding yeast, residues 261-332; source: E. coli BL21 Rosetta (DE3): cleared cell extract on chitin resin (pull-down); purified (chitin, heparin, gel filtration) for ITC and SPR
B3: Lge1-CT L325N (domain or fragment, budding yeast, UniProt Q02796 261-332, looked up)
chain: B2 chain with K41E, E45R, L65N
notes: as for B2
B4: Lge1-CT K324E (domain or fragment, budding yeast, UniProt Q02796 261-332, looked up)
chain: B2 chain with K41E, E45R, K64E
notes: as for B2
B5: Lge1-CT K313E/H314E (domain or fragment, budding yeast, UniProt Q02796 261-332, looked up)
chain: B2 chain with K41E, E45R, K53E, H54E
notes: as for B2
B6: Lge1-CT L316N (domain or fragment, budding yeast, UniProt Q02796 261-332, looked up)
chain: B2 chain with K41E, E45R, L56N
notes: as for B2
B7: Lge1-CT E303K (domain or fragment, budding yeast, UniProt Q02796 261-332, looked up)
chain: B2 chain with K41E, E43K, E45R
notes: as for B2
B8: Lge1-CT L320N (domain or fragment, budding yeast, UniProt Q02796 261-332, looked up)
chain: B2 chain with K41E, E45R, L60N
notes: as for B2
B9: Lge1-CT I318D (domain or fragment, budding yeast, UniProt Q02796 261-332, looked up)
chain: B2 chain with K41E, E45R, I58D
notes: as for B2
B10: intein-CBD-tagged WAC-CT (WAC residues 570–647) (domain or fragment, human, UniProt Q9BTA9 570-647, looked up)
chain: HVQGWPADHAEKQASRLREEAHNMGTIHMSEICTELKNLRSLVRVCEIQATLREQRILFLRQQIKELEKLKNQNSFMV
notes: WAC, human, residues 570-647; purified on Ni-NTA although no histidine tag is named; also called intein-WAC; WT; source: purified (Ni-NTA, heparin, gel filtration)
B11: intein-WAC S2 (E604K/K606E/R609E/R613E/E616K) (domain or fragment, human, UniProt Q9BTA9 570-647, looked up)
chain: B10 chain with E35K, K37E, R40E, R44E, E47K
notes: WAC, human, residues 570-647; source: purified (Ni-NTA, heparin, gel filtration)
B12: intein-WAC S3 (R622E/E623K/R625E) (domain or fragment, human, UniProt Q9BTA9 570-647, looked up)
chain: B10 chain with R53E, E54K, R56E
notes: as for B11
B13: intein-WAC S5 (E635K/E637K/K640E) (domain or fragment, human, UniProt Q9BTA9 570-647, looked up)
chain: B10 chain with E66K, E68K, K71E
notes: as for B11
B14: intein-WAC S4 (R630E) (domain or fragment, human, UniProt Q9BTA9 570-647, looked up)
chain: B10 chain with R61E
notes: as for B11
B15: intein-WAC S1 (D577K/E580K/R587E) (domain or fragment, human, UniProt Q9BTA9 570-647, looked up)
chain: B10 chain with D8K, E11K, R18E
notes: as for B11

Each binder was assayed against T1, Bre1, 6× histidine tag, purified (assay: co-sedimentation; 5%–45% sucrose gradient, purified Bre1, Lge1 or their mixture; 20 mM TRIS (pH 7.5), 10 mM potassium chloride, 5 mM magnesium chloride; 27 000 rpm, 15 h, 4°C). Settings: both partners purified.

Row | Binder | binding result
1 | B1 | binds

What follows are binders tested against T2, Bre1-LR (Bre1 residues 227–700, LBD and …) (assay: ITC; Lge1-CT (50–60 μM) injected into Bre1-LR (15 μM); 25°C, 20 mM TRIS (pH 7.5), 200 mM sodium chloride). Settings: both partners purified.

Row | Binder | Kd | dH | stoichiometry N
2 | B2 | 59.7 ± 38.2 nM | -19.4 ± 2.3 kcal/mol | 0.585 ± 0.022
3 | B3 | 8.06 ± 1.52 nM | -61.2 ± 0.6 kcal/mol | 0.367 ± 0.001
4 | B4 | 8.77 ± 2.09 nM | -48 ± 0.7 kcal/mol | 0.329 ± 0.001
5 | B5 | 33.9 ± 8.4 nM | -43.6 ± 1.1 kcal/mol | 0.392 ± 0.005
6 | B6 | 52.2 ± 4.9 nM | -65.4 ± 0.7 kcal/mol | 0.293 ± 0.002
7 | B7 | 132 ± 24 nM | -46.7 ± 2.2 kcal/mol | 0.587 ± 0.011
8 | B8 | 23.7 ± 3.8 nM | -49.9 ± 0.6 kcal/mol | 0.37 ± 0.002
9 | B9 | 21.1 ± 3.7 nM | -53.6 ± 0.8 kcal/mol | 0.37 ± 0.022

The binders below were run against T2, Bre1-LR (Bre1 residues 227–700, LBD and …) (assay: SPR; Lge1-CT immobilised on a CM5 chip, Bre1-LR flown over; Biacore 8K, 25°C, 20 mM HEPES (pH 7.5), 200 mM sodium chloride, 0.02% Tween 20). Settings: both partners purified.

Row | Binder | Kd | koff | kon
10 | B2 | 81.7 nM | – | –
11 | B3 | 58.7 nM | 0.00328 s⁻¹ | 55900 M⁻¹ s⁻¹
12 | B4 | 49.8 nM | 0.00509 s⁻¹ | 102000 M⁻¹ s⁻¹
13 | B5 | 51.8 nM | 0.00947 s⁻¹ | 183000 M⁻¹ s⁻¹
14 | B6 | 62.8 nM | 0.00527 s⁻¹ | 84000 M⁻¹ s⁻¹
15 | B7 | 63.8 nM | – | –
16 | B8 | 50.8 nM | 0.00417 s⁻¹ | 82000 M⁻¹ s⁻¹
17 | B9 | 20.7 nM | 0.00155 s⁻¹ | 74800 M⁻¹ s⁻¹

Each binder was assayed against T3, RNF-MD S1i (E822K/R826E in RNF20 and K860E in RNF40) (human, UniProt Q5VTR2 321-900; O75150 327-926, E822K | R826E | K860E) (assay: SPR; RNF-MD immobilised on a CM5 chip, intein-WAC flown over; Biacore 8K, 25°C, 20 mM HEPES (pH 7.5), 200 mM sodium chloride, 0.02% Tween 20). Settings: both partners purified.
T3 construct: RNF20, human, residues 321-900; RNF40, human, residues 327-926; source: E. coli BL21 Rosetta (DE3), purified from the mixed cell extract (strep-tactin, dextrin, gel filtration); copies: 1 + 1
T3 sequence (Q5VTR2 321-900 E822K/R826E, chain 1 of 2): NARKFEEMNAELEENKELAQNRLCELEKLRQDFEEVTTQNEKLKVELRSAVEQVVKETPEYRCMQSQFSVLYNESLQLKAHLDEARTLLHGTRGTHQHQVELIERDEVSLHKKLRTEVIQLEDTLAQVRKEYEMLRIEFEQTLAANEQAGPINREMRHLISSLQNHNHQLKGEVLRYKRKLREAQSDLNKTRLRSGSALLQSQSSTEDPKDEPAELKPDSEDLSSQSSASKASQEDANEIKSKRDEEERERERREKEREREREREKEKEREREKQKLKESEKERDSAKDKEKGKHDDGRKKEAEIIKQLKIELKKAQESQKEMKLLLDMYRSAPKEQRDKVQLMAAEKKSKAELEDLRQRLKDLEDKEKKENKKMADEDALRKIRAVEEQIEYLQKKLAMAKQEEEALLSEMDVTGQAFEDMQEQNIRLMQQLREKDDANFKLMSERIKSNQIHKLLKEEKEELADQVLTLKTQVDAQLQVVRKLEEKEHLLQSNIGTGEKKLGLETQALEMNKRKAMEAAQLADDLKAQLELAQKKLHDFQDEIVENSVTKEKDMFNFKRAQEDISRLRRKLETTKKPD
T3 sequence (O75150 327-926 K860E, chain 2 of 2): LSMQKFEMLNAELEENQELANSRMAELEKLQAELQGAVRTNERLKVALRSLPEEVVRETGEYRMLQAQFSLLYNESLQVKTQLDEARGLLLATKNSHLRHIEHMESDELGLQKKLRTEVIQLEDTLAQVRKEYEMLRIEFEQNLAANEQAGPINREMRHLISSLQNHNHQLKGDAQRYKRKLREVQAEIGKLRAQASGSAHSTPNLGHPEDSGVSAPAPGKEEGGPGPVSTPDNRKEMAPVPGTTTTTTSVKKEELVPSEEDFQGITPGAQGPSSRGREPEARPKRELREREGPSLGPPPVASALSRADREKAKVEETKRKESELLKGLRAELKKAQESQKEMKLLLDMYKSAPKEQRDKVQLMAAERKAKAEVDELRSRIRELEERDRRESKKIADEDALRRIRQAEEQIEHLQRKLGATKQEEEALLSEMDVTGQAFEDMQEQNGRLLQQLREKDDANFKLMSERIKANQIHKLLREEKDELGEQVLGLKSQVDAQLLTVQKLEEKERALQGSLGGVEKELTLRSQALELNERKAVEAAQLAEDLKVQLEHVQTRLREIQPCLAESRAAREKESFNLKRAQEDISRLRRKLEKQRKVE

Row | Binder | Kd | koff | kon
18 | B10 | 539 nM | 0.0168 s⁻¹ | 31300 M⁻¹ s⁻¹

The binders below were run against T4, RNF-MD S2i (E427K/K804E in RNF20 and E428K/E431K/E434K/R442E/E832K/E835K in RNF40) (human, UniProt Q5VTR2 321-900; O75150 327-926, E427K | K804E | E428K | E431K | E434K | R442E | E832K | E835K) in the same assay as above. Settings: both partners purified.
T4 construct: RNF20, human, residues 321-900; RNF40, human, residues 327-926; source: E. coli BL21 Rosetta (DE3), purified from the mixed cell extract (strep-tactin, dextrin, gel filtration); copies: 1 + 1
T4 sequence (Q5VTR2 321-900 E427K/K804E, chain 1 of 2): as the sequence (Q5VTR2 321-900 E822K/R826E, chain 1 of 2) above, with E107K, K484E, K502E, E506R counted along it
T4 sequence (O75150 327-926 E428K/E431K/E434K/R442E/E832K/E835K, chain 2 of 2): as the sequence (O75150 327-926 K860E, chain 2 of 2) above, with E102K, E105K, E108K, R116E, E506K, E509K, E534K counted along it

Row | Binder | Kd | koff | kon
19 | B11 | 262 nM | 0.00338 s⁻¹ | 12900 M⁻¹ s⁻¹

The binders below were run against T5, RNF-MD S3i (E783K/D786K in RNF20 and E449K/K818E in RNF40) (human, UniProt Q5VTR2 321-900; O75150 327-926, E783K | D786K | E449K | K818E) in the same assay as above. Settings: both partners purified.
T5 construct: RNF20, human, residues 321-900; RNF40, human, residues 327-926; source: E. coli BL21 Rosetta (DE3), purified from the mixed cell extract (strep-tactin, dextrin, gel filtration); copies: 1 + 1
T5 sequence (Q5VTR2 321-900 E783K/D786K, chain 1 of 2): as the sequence (Q5VTR2 321-900 E822K/R826E, chain 1 of 2) above, with E463K, D466K, K502E, E506R counted along it
T5 sequence (O75150 327-926 E449K/K818E, chain 2 of 2): as the sequence (O75150 327-926 K860E, chain 2 of 2) above, with E123K, K492E, E534K counted along it

Row | Binder | Kd | koff | kon
20 | B12 | 285 nM | 0.00308 s⁻¹ | 10800 M⁻¹ s⁻¹

These binders were tested against T6, RNF-MD complex (strep-SUMO-RNF20 residues 321–900 with MBP-RNF40 residues 327–926) (human, UniProt Q5VTR2 321-900; O75150 327-926) in the same assay as above. Settings: both partners purified.
T6 construct: RNF20, human, residues 321-900; RNF40, human, residues 327-926; heterodimer; also called RNF20/RNF40; WT; source: E. coli BL21 Rosetta (DE3), purified from the mixed cell extract (strep-tactin, dextrin, gel filtration); copies: 1 + 1
T6 sequence (Q5VTR2 321-900, chain 1 of 2): as the sequence (Q5VTR2 321-900 E822K/R826E, chain 1 of 2) above, with K502E, E506R counted along it
T6 sequence (O75150 327-926, chain 2 of 2): as the sequence (O75150 327-926 K860E, chain 2 of 2) above, with E534K counted along it

Row | Binder | Kd | koff | kon
21 | B10 | 504 nM | 0.0234 s⁻¹ | 46400 M⁻¹ s⁻¹
22 | B13 | 325 nM | 0.0143 s⁻¹ | 44100 M⁻¹ s⁻¹
23 | B14 | 1190 nM | 0.0138 s⁻¹ | 11600 M⁻¹ s⁻¹
24 | B15 | 514 nM | 0.0165 s⁻¹ | 32000 M⁻¹ s⁻¹
